Experimental data reported in patent US20220177604A1.
Substitutions are numbered along the chain they refer to. Each block holds one binder with its values, some of them ahead of it.

How the values were obtained:
[1] = molecular target: recombinant Motavizumab human IgE (rMota-hIgE) (human) (UniProt P01854); experiment: hIgE binding ELISA
[2] = molecular target: human IgE pre-bound on human basophils (human) (UniProt P01854); experiment: cell-based or functional assay
[3] = molecular target: human immunoglobulin E (hIgE) (human) (UniProt P01854); experiment: flow cytometry: inhibition of human IgE binding to hFcεRIα+ bone-marrow-derived mast cells, residual IgE staining (MFI); table head on the sheet reads EC50, the text calls the values IC50; no unit in the table, x axis in µg/ml
human immunoglobulin E (hIgE) (human), sequence (P01854 whole entry): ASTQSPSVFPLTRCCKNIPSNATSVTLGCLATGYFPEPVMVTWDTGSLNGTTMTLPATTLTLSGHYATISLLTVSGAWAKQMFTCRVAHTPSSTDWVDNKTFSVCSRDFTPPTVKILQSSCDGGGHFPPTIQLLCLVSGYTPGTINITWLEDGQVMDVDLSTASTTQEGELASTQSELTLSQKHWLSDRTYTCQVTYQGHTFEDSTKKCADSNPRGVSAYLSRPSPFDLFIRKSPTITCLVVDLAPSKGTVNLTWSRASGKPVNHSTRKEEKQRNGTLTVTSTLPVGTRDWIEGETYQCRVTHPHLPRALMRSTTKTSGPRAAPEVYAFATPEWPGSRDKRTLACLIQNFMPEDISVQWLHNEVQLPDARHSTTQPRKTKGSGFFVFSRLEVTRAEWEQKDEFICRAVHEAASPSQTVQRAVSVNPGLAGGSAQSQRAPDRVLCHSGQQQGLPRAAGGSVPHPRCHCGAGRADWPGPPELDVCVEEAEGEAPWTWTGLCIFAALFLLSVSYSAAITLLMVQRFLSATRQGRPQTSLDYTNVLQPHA

[4] = molecular target: human immunoglobulin E (hIgE) (human) (UniProt P01854); experiment: SPR competition, hIgE over hFcεRIα chip, pH 6 (text: pH 5.5)
[5] = molecular target: human immunoglobulin E (hIgE) (human) (UniProt P01854); experiment: SPR competition, hIgE over hFcεRIα chip, pH 7.4
[6] = molecular target: human immunoglobulin E (hIgE) (human) (UniProt P01854); experiment: competition ELISA, hIgE to coated hFcεRIα, pH 6
[7] = molecular target: human immunoglobulin E (hIgE) (human) (UniProt P01854); experiment: competition ELISA, hIgE to coated hFcεRIα, pH 7.4
[8] = molecular target: human immunoglobulin E (hIgE) (human) (UniProt P01854); experiment: SPR competition, hIgE over hFcεRIα chip, pH 5.5
[9] = molecular target: human immunoglobulin E (hIgE) (human) (UniProt P01854); experiment: SPR competition
[10] = molecular target: human immunoglobulin E (hIgE) (human) (UniProt P01854); experiment: SPR competition, hIgE over hFcεRIα chip, pH 7.4; remark: listed apart in the source
[11] = molecular target: human immunoglobulin E (hIgE) (human) (UniProt P01854); experiment: flow cytometry: inhibition of human IgE binding to hFcεRIα+ bone-marrow-derived mast cells, residual IgE staining (MFI); unit inferred, x axis in µg/ml
[12] = molecular target: human immunoglobulin E (hIgE) (human) (UniProt P01854); experiment: SPR competition, hIgE + mAb over hFcεRIα chip, pH 7.4
[13] = molecular target: human immunoglobulin E (hIgE) (human) (UniProt P01854); experiment: competition ELISA, biotin-hIgE to coated hFcεRIα, pH 7.4
[14] = molecular target: human immunoglobulin E (hIgE) (human) (UniProt P01854); experiment: competition ELISA
[15] = molecular target: human immunoglobulin E (hIgE) (human) (UniProt P01854); experiment: competition ELISA, biotin-hIgE to coated hFcεRIα, pH 6
[16] = molecular target: human immunoglobulin E (hIgE) (human) (UniProt P01854); experiment: SPR competition, hIgE + mAb over hFcεRIα chip, pH 6 (text: pH 5.5)

recombinant Motavizumab human IgE (rMota-hIgE) (human), sequence (P01854 other isoform, or with tags, fused parts or gaps limits assumed, form in doubt): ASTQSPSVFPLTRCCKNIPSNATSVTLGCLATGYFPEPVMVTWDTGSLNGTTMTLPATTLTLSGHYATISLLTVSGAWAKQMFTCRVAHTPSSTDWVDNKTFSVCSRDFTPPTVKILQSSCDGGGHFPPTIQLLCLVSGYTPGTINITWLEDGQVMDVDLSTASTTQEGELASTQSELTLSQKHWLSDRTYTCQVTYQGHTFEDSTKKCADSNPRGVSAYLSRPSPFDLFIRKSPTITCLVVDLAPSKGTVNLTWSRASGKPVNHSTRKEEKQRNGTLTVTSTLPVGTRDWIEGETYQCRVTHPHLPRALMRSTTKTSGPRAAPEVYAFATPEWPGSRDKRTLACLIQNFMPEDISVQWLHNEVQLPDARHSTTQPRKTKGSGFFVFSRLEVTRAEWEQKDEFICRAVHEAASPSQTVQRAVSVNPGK
human IgE pre-bound on human basophils (human), sequence (P01854 whole entry, chain 1 of 2): as the sequence (P01854 whole entry) above
human IgE pre-bound on human basophils (human), sequence (P12319 26-257, chain 2 of 2, further chain): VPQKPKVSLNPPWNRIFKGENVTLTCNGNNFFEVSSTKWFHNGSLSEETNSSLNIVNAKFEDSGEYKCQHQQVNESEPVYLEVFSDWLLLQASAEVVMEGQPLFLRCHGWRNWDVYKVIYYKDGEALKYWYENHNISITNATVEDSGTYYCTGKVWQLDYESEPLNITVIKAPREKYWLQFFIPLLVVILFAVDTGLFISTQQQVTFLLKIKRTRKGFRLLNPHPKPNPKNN

B1: CL-2C mAb 19 (antibody, V domains shown)
VH: QVQLVQSGAEVMKPGSSVKVSCKASGYTFSWYHLEWVRQAPGHGLEWMGEIDPGTFTTNYNEKFKARVTFTADTSTSTAYMELSSLRSEDTAVYYCARFSHFSGHNYDYFDYWGQGTLVTVSS
VL: EIVMTQSPATLSVSPGERATLSCRASQSIGTNIHWYQQKPGQAPRLLIYHASESISGIPARFSGSGSGTEFTLTISSLQSEDFAVYYCQQSDSHPTTFGGGTKVEIK
Ratio OD450 pH 7.4/pH 6 [1]: 1.04

B5: CL-2C mAb 39 (antibody, V domains shown)
VH: B1 VH
VL: B1 VL with H50Y, D92W, H94W
Ratio OD450 pH 7.4/pH 6 [1]: 7.59

B6: CL-2C mAb 29 (antibody, V domains shown)
VH: B1 VH
VL: B1 VL with D92W, H94W
Ratio OD450 pH 7.4/pH 6 [1]: 15.3

B8: CL-2C mAb 30 (antibody, V domains shown)
VH: B1 VH with H33W, H105S
VL: B1 VL with D92W, H94W
Ratio OD450 pH 7.4/pH 6 [1]: 14

B11: CL-2C mAb 27 (antibody, V domains shown)
VH: B1 VH with H105S, Y107H
VL: B1 VL with D92W, H94W
Ratio OD450 pH 7.4/pH 6 [1]: 19.4

B12: CL-2C mAb 35 (antibody, V domains shown)
VH: B1 VH with H33W, H105S
VL: B1 VL with H50Y, D92W
Ratio OD450 pH 7.4/pH 6 [1]: 0.69

B14: CL-2C mAb 32 (antibody, V domains shown)
VH: B1 VH with H105S, Y107H
VL: B1 VL with H50Y, D92W
Ratio OD450 pH 7.4/pH 6 [1]: 4.13

B15: CL-2C mAb 33 (antibody, V domains shown)
VH: B1 VH with H105S, N106H
VL: B1 VL with H50Y, D92W
Ratio OD450 pH 7.4/pH 6 [1]: 2.61

B19: 18E2His2-hIgG1-WT (antibody, V domains shown)
VH: QLQLVESGGGLVQPGGSLRLSCAASGFTFSSYVMHWVRQAPGKGLEWVSSIYHDGSHTYYADFVKGRFTISRDNAKNTLYLQMNSLKSEDTAVYYCASGTSYSGSYYYTDPFFGSWGQGTQVTVSS
VL: NFMLTQPSALSVTLGQTARITCQGDRLGSRYIHWYQQKPPQAPVLVIHDDDRRPSGIPERFSGSSSGGTATLTISGAQAEDDGDYYCQSADSSGNPVFGGGTHLTVL
% of activated basophils (CCR3+CD63+) [2]: 5%
IC50 [8]: 9.86 µg/mL
IC50 [3]: 25.7 µg/mL
IC50 [4]: 6310 µg/mL
IC50 [5]: 6 µg/mL
IC50 [6]: 77.2 µg/mL
fold reduction of affinity at pH 7.4 against the WT clone [9]: 2.5 fold
ratio between IC50 at pH5.5 and pH 7.4 [9]: 6.3
IC50 [10]: 1.56 µg/mL
IC50 [7]: 2.48 µg/mL

B22: 18B9His-hIgG1-ABDEG (antibody, V domains shown)
VH: QVQLVESGGGLVQPGGSLRLSCAASGFTFSSYVMSWVRQAPGKGLEWVSSIYSDGSHTYYADSVKGRFTISRDNAKNTLYLQMNSLKSEDTAVYYCAKNLEHYSGSYYYTDPRYDYWGQGTQVTVSS
VL: SSALTQPSALSVTLGQTAKITCQGGSLGSSYVHWYQQKPGQAPVLVIHDGDSRPSGIPERFSGSSSGGTATLTISGAQAEDEDDYYCQSADSSGNAVFGGGTHLTVL
% of activated basophils (CCR3+CD63+) [2]: 29%
IC50 [11]: 4.16 µg/mL
IC50 [4]: 52.9 µg/mL
IC50 [5]: 2.9 µg/mL
IC50 [6]: 2.55 µg/mL
IC50 [7]: 0.13 µg/mL

Results, then the binder that gave them:

Ratio OD450 pH 7.4/pH 6 [1]: 10.7
B2: CL-2C mAb 36 (antibody, V domains shown)
VH: B1 VH with H33W, N59H, H105S, N106H
VL: B1 VL with H50Y, D92W, H94W

Ratio OD450 pH 7.4/pH 6 [1]: 4.48
B3: CL-2C mAb 38 (antibody, V domains shown)
VH: B1 VH with H105S, N106H
VL: B1 VL with H50Y, D92W, H94W

Ratio OD450 pH 7.4/pH 6 [1]: 5.5
B4: CL-2C mAb 34 (antibody, V domains shown)
VH: B1 VH
VL: B1 VL with H50Y, D92W

Ratio OD450 pH 7.4/pH 6 [1]: 5.54
B7: CL-2C mAb 28 (antibody, V domains shown)
VH: B1 VH with H105S, N106H
VL: B1 VL with D92W, H94W

Ratio OD450 pH 7.4/pH 6 [1]: 44.6
B9: CL-2C mAb 26 (antibody, V domains shown)
VH: B1 VH with H33W, N59H, H105S, N106H
VL: B1 VL with D92W, H94W

Ratio OD450 pH 7.4/pH 6 [1]: 10.9
B10: CL-2C mAb 31 (antibody, V domains shown)
VH: B1 VH with H33W, N59H, H105S, N106H
VL: B1 VL with H50Y, D92W

Ratio OD450 pH 7.4/pH 6 [1]: 1
B13: CL-2C mAb 40 (antibody, V domains shown)
VH: B1 VH with H33W, H105S
VL: B1 VL with H50Y, D92W, H94W

Ratio OD450 pH 7.4/pH 6 [1]: 5.46
B16: CL-2C mAb 20 (antibody, V domains shown)
VH: B1 VH with H33W, H105S
VL: B1 VL

% CD63+ basophils at 20 µg/mL [2]: 3.7%
% CD63+ basophils at 100 µg/mL [2]: 3.1%
SI (Stimulation Index) at 20 µg/mL [2]: 1.48
SI (Stimulation Index) at 100 µg/mL [2]: 1.24
B17: 18E2VLHis-ABDEG (antibody, V domains shown)
VH: B19 VH with H35S
VL: B19 VL

% CD63+ basophils at 20 µg/mL [2]: 4%
% CD63+ basophils at 100 µg/mL [2]: 4.3%
% of activated basophils (CCR3+CD63+) [2]: 4%
IC50 [3]: 208 µg/mL
IC50 [4]: 7320 µg/mL
IC50 [5]: 5.8 µg/mL
IC50 [6]: 26.6 µg/mL
IC50 [7]: 1.49 µg/mL
B18: 18E2His2-hIgG1-ABDEG (antibody, V domains shown)
VH: B19 VH
VL: B19 VL

% CD63+ basophils at 20 µg/mL [2]: 3.5%
% CD63+ basophils at 100 µg/mL [2]: 4.8%
SI (Stimulation Index) at 20 µg/mL [2]: 1.4
SI (Stimulation Index) at 100 µg/mL [2]: 1.92
B20: 18E2VHHis-ABDEG (antibody, V domains shown)
VH: B19 VH
VL: B19 VL with H33Y

% CD63+ basophils at 20 µg/mL [2]: 12.6%
% CD63+ basophils at 100 µg/mL [2]: 37%
% of activated basophils (CCR3+CD63+) [2]: 32%
SI (Stimulation Index) at 20 µg/mL [2]: 5.48
SI (Stimulation Index) at 100 µg/mL [2]: 16.1
IC50 [8]: 4.06 µg/mL
IC50 [11]: 3.89 µg/mL
IC50 [4]: 58.5 µg/mL
IC50 [5]: 2.7 µg/mL
IC50 [6]: 3.02 µg/mL
ratio between IC50 at pH5.5 and pH 7.4 [9]: 5.4
IC50 [10]: 0.749 µg/mL
IC50 [7]: 0.19 µg/mL
B21: 18B9His-hIgG1-WT (antibody, V domains shown)
VH: B22 VH
VL: B22 VL

% of activated basophils (CCR3+CD63+) [2]: 18%
IC50 [12]: 1.62 nM
IC50 [3]: 1.44 µg/mL
IC50 [4]: 2.5 µg/mL
IC50 [13]: 10.3 nM
Ratio pH 6/7.4 (IC50) [14]: 1.2
IC50 [5]: 2.3 µg/mL
IC50 [6]: 0.0114 µg/mL
Ratio pH 6/7.4 (IC50) [9]: 1
IC50 [15]: 12.9 nM
IC50 [16]: 1.54 nM
IC50 [7]: 0.00681 µg/mL
B23: 13E4-hIgG1-WT (antibody, V domains shown)
VH: B19 VH with Q1E, H35S
VL: B22 VL with S1H, L4V, S30N, V32A, H33Y, H48Y, G50D, D83G, S93N

% CD63+ basophils at 20 µg/mL [2]: 61.3%
% CD63+ basophils at 100 µg/mL [2]: 68.6%
% of activated basophils (CCR3+CD63+) [2]: 17%
IC50 [3]: 1.36 µg/mL
IC50 [4]: 3.2 µg/mL
IC50 [5]: 3 µg/mL
IC50 [6]: 0.0106 µg/mL
IC50 [7]: 0.0065 µg/mL
B24: 13E4-hIgG1-ABDEG (antibody, V domains shown)
VH: B19 VH with Q1E, H35S
VL: B22 VL with S1H, L4V, S30N, V32A, H33Y, H48Y, G50D, D83G, S93N
